According to publication PMC10853454, “ADAM19 cleaves the PTH receptor and associates with brachydactyly type E” (Life Science Alliance, 2024):

What was measured:
[1] = system: ADAM19 / EYFP-PTHR1; experiment: ADAM19 shedding assay, EYFP-PTHR1 supernatant/cell fluorescence ratio; format: cell-based, human; settings: HEK-293T cells, EYFP-PTHR1 + WT ADAM19; 100 μM ilomastat in DMEM from 1 h after transfection, 48 h (method: 47 h); EYFP fluorescence 500/539 nm; n = 5, t test
Experimental: For fluorescence-based shedding experiments, HEK-293T cells were seeded in six-well cell culture plates at a density of 500,000 cells per well 24 h prior to transfection. Next day, cells in each well were transfected with 0.4 μg EYFP-PTHR1 plasmid and 0.8 μg ADAM19 or empty pcDNA3 vector plasmids. For the experiments in which the different ADAM:EYFP-PTHR1 ratios were examined, cells were transfected with a constant 0.3 μg EYFP-PTHR1 construct alongside with varying amounts of ADAM19 and pcDNA constructs to maintain the total DNA amount of 1.2 μg. 1 h after transfection, cells were supplemented with DMEM or with 100 μM ilomastat dissolved in DMEM. […] 96-well plate fluorescence measurements were performed using a Biotek Neo2 multi-well plate reader. EYFP intensity was measured using high lamp power settings at an excitation wavelength of 500/18 nm. Fluorescence was detected using a monochromator set to 539/20 nm for emission and a photomultiplier tube set to 120 V gain. To calculate and quantify the ADAM19-mediated shedding of PTHR1 N-terminus, background fluorescence value obtained from pure DMEM was subtracted from fluorescence values obtained from cell culture medium (Fsupernatant) and cell suspensions (Fcell), and then the ratio of background-corrected fluorescence values was calculated: Ratio = Fsupernatant/Fcell. […]

[2] = system: ADAM19 cleavage of PTHR1; experiment: PTHR1 cleavage by ADAM19, Western blot after PNGase F de-glycosylation; format: cell-based, human; settings: HEK-293T (text: HEK 293) cells, unmodified PTHR1 + ADAM19, 10 μM batimastat, inhibitors added 24 h, lysis 36 h after transfection, Western blot anti PTHR1 573–593
Experimental: HEK-293T cells were seeded onto 12-well plates and transfected with plasmids encoding human P[…], ADAM-19 using TransIT-293 (Mirus) according to the manufacturer's instructions. Protease inhibitors were added to the medium 24 h after transfection as indicated. 36 h after transfection, cells were washed with PBS and lysed in ice-cold radioimmune precipitation assay buffer (50 mM Tris-HCl, pH 7.5, 150 mM NaCl, 1% [wt/vol] Nonidet P-40, 0.1% [wt/vol] SDS, 0.5% [wt/vol] sodium deoxycholate, 5 mM EDTA) supplemented with a mix of protease inhibitors (5 μM leupeptin, 5 μM pepstatin-A, 1 mM 4-(2-aminoethyl) benzenesulfonyl fluoride). The lysates were cleared by centrifugation at 20,000g for 30 min at 4°C. For deglycosylation, lysates were incubated with 40 mM dethiothreitol and 0.5% SDS for 90 min at 25°C. Thereafter, 1 mg/ml PNGase F was added, and samples were incubated for 16 h at 4°C. Proteins were separated by 8% or 10% SDS-PAGE and transferred onto PVDF membranes ([…], #T830.1; Carl Roth). The membranes were blocked in 5% skimmed milk powder (Sigma-Aldrich) or in casein solution (Sigma-Aldrich) for 1 h at RT. […] Proteins were detected either after short incubation in Immobilon Western ECL substrate (#WBKLS0500; Millipore) on an Odyssey FC device (Li-cor Biosciences) or on an Odyssey CLx scanner (Li-cor Biosciences). […]

[3] = system: PTHR1 (cAMP accumulation); experiment: FRET-based cAMP accumulation assay (Epac-S-H187) in U2OS cells; format: cell-based, human; settings: 500 pM ligand
Experimental: For cAMP accumulation assays, U2OS cells were seeded on Poly-D- Lysine-coated 24 mm glass cover slips in 6-well plates at a density of 1.0 × 10^6 cells/well and transfected with 1–2.4 μg cDNA per cover slip using Effectene (QIAGEN) or NEON electroporation (Thermo Fisher Scientific) according to the manufacturer’s protocol. cDNA was transfected with the EPAC-S-H187 FRET-biosensor ([Klarenbeek et al, 2015]), PTHR1-wt and ADAM19 at a ratio of 1:1:2. Fluorescence microscopy experiments were performed 48 h after transfection. For single-cell FRET imaging experiments, transfected cells on coverslips were transferred to imaging chambers (Attoflur; Thermo Fisher Scientific) and washed once and maintained in FRET imaging buffer (144 mM NaCl, 5.4 mM KCl, 2 mM CaCl2 [Carl Roth GmbH & Co. KG], 1 mM MgCl 2 [AppliChem], 10 mM HEPES [Sigma-Aldrich Chemie GmbH]; pH = 7.3). For the experiment, the cells remained at RT throughout the experiment. […]
After selecting suitable cells at the microscope, regions of interest (single cells and a cell-free background region) were chosen and recording parameters were set using the Visiview 4.0 imaging software (Visitron Systems). Every 5 s, images of the donor and acceptor emission channels were recorded following donor excitation at 436 nm for 100 ms. […] After every experiment, direct YFP excitation at 505 nm (emission: 560 nm) was recorded as a unit of measurement for the expression level of the sensor.
For data analysis, raw emission intensities from CFP and YFP channels were exported and corrected for background (by subtracting the emission intensities of a cell free region) and bleed-through of the donor fluorescence into the acceptor channel ([Borner et al, 2011]). FRET ratios (CFP/FRET in %) were calculated and normalized to baseline average of 10 data points before ligand addition, set to 0% and Forskolin/3-iso-butyl-1 methylxanthine (max. cAMP response, set to 100%). […]

[4] = system: PTHR1 (Gs activation); experiment: BRET-based Gs activation by PTHR1; format: cell-based, human; settings: HEK-293T cells with ADAM19; Gs BRET sensor, 37°C; three independent experiments in duplicates
Experimental: (§1) U2OS, Saos2 and HEK-293T cells were transfected with Gs or Gq protein BRET biosensors ([Che et al, 2010]), PTHR1 and ADAM19 at a ratio of 1:1:2. For β-arrestin2 BRET recruitment assay, PTHR1-Nanoluc was used with β-arrestin2-cpVenus and ADAM19 at a ratio of 1:1:2 ([Nemec et al, 2022]). Combinations were transfected with Effectene (QIAGEN) or NEON electroporation (Thermo Fisher Scientific) according to the manufacturer’s protocol with a total of 1–2.4 μg of cDNA. After 24 h cells were transferred into a PDL-precoated a white-wall, white-bottomed 96-well microtiter plate, at a density of 60,000 cells/well. 24 h after the reseeding, the medium was removed, and cells were washed once with PBS with 0.1% BSA and incubated with 90 μl of a 1:1,000 (vol:vol) stock solution of furimazine in PBS buffer. 5 min later, basal reads were recorded for 4 min and subsequently, 10 μl of 10-fold ligand solution or FRET buffer was applied to each well and the stimulated reads were further recorded. Measurements were performed at 37°C using a Synergy Neo2 Plate Reader with the NanoBRET filter set, integration time per data point was set to 0.3 s and gain to 110/140. Cells were excited at 510/20 nm and fluorescence emission was recorded at 560/20 nm for quantification of expression level ([Nemec et al, 2022]).

[5] = system: PTHR1 (Gq activation); experiment: BRET-based Gq activation by PTHR1; format: cell-based, human
Experimental: as §1

[6] = system: PTHR1 (β-arrestin2 recruitment); experiment: BRET β-arrestin2 recruitment to PTHR1 in U2OS cells; format: cell-based, human
Experimental: as §1

[7] = system: PTHR1 (β-arrestin2 recruitment); experiment: BRET β-arrestin2 recruitment to PTHR1 in SaOS cells; format: cell-based, human; settings: SaOS (Saos2) cells; PTHR1-Nanoluc + β-arrestin2-cpVenus BRET, 37°C
Experimental: as §1

[8] = system: PTH1R; settings: ref Hattersley et al, 2016; cited from earlier work

Molecule: CNC(=O)[C@H](Cc1c[nH]c2ccccc12)NC(=O)[C@@H](CC(=O)NO)CC(C)C [Ilomastat (GM6001)]
- inhibition of PTHR1 cleavage by ADAM19 [1]: PTHR1 cleavage by ADAM19 was inhibited

Molecule: CNC(=O)[C@H](Cc1ccccc1)NC(=O)[C@H](CC(C)C)[C@H](CSc1cccs1)C(=O)NO [batimastat]
- PTHR1 species detected with ADAM19 co-expression [2]: only the 60 kD species of PTHR1 were detected

Molecule: PTH1-34: PTHR1 ligand, BACHEM #4033364 (SVSEIQLMHNLGKHLNSMERVEWLRKKLQDVHNF; Parathyroid hormone; UniProt P01270 32-65, looked up, fragment)
- increase of FRET ratio (CFP/FRET), average ([3]; U2OS cells with and without ADAM19, 0% = baseline, 100% = 10 μM Forskolin + 100 μM 3-iso-butyl-1 methylxanthine, "in both cases"): 70–80%
- cAMP response ([3]; U2OS cells, PTH1R + Epac-S-H187, alone and with ADAM19, single-cell FRET, RT, pH 7.3): an increase in cAMP was detected
- difference in cAMP response with vs without ADAM19 ([3]; U2OS cells, PTH1-34 n = 96 cells on 5 days (Welch t test), PTHrP n = 76 cells on 2 days (Mann-Whitney)): no significant differences

B1: PTH: parathyroid hormone; PTHR1 agonist, form used in BRET assays not specified (peptide, UniProt P01270 32-115, looked up)
Parathyroid hormone: SVSEIQLMHNLGKHLNSMERVEWLRKKLQDVHNFVALGAPLAPRDAGSQRPRKKEDNVLVESHEKSLGEADKADVNVLTKAKSQ
modifications: Parathyroid hormone
notes: parathyroid hormone; PTHR1 agonist, form used in BRET assays not specified
- Gs-activation for WT PTHR1 compared to cleavage-protected PTHR1-56-63A mutant [4]: increased Gs-activation
- Top of the curve (maximum efficacy), Gq, WT vs 56–63A mutant PTHR1 ([5]; HEK293T with ADAM19, three-parameter non-linear fit, extra sum of squares F test (<0.0001), Fig 6B-E legend, panels not distinguished): significantly different
- Gq-activation for WT PTHR1 compared to cleavage-protected PTHR1-56-63A mutant ([5]; HEK-293T cells with ADAM19, Gq BRET sensor, 37°C, three independent experiments in duplicates): decreased Gq-activation
- β-arrestin2 recruitment to PTHR1, presence vs absence of ADAM19 ([6]; PTHR1-Nanoluc + β-arrestin2-cpVenus BRET, 37°C, four experiments in quadruple): significantly increased β-arrestin translocation to the PTHR1 when ADAM19 was present
- Top of the curve (maximum efficacy), β-arrestin2 recruitment, with vs without ADAM19 ([6]; three-parameter non-linear fit, extra sum of squares F test (<0.0001)): significantly different
- β-arrestin2 recruitment to PTHR1, presence vs absence of ADAM19 [7]: significantly increased β-arrestin translocation to the PTHR1 when ADAM19 was present
- agonist type at PTH1R [8]: full agonists
